Where no end group is shown, it is not given here.
B1: Phage-2285 (peptide)
peptide: EPKWCIPQWMCERF
notes: tested as crude clonal phage supernatant
B2: Phage-2286 (peptide)
peptide: AEKWCIPPWMCVND
notes: as for B1
B3: Phage-2289 (peptide)
peptide: ELNWCTPPWMCNPM
notes: as for B1
B4: Phage-2292 (peptide)
peptide: NSNWCIPSWMCADI
modifications: cysteine pairing not given here; also: displayed on bacteriophage by fusion to pIII
notes: as for B1
B5: Phage-2293 (peptide)
peptide: VEKWCIPPWMCVNS
notes: as for B1
B6: Phage-2190 (peptide)
peptide: EHHWCIPKWMCNEV
notes: as for B1
B7: Phage-2288 (peptide)
peptide: HVKWCTPAWMCVSN
notes: as for B1
B8: Phage-2295 (peptide)
peptide: DVMWCIPPWMCEHR
notes: as for B1
B9: Phage-2291 (peptide)
peptide: VEKWCIPAWMCQQS
notes: as for B1
B10: Phage-2294 (peptide)
peptide: IHMLCSPPWMCVGL
notes: as for B1
B11: Phage-2290 (peptide)
peptide: VDKQCRPAWMCEIW
notes: as for B1
B12: Phage-2283 (peptide)
peptide: GGKWCKPSWMCFGM
notes: as for B1
B13: Phage-2191 (peptide)
peptide: VDNWCVPRWMCDGF
notes: as for B1
B14: Phage-2284 (peptide)
peptide: MINWCTPAWMCTGF
notes: as for B1
B15: Phage-2287 (peptide)
peptide: VEKWCTPRWMCEGF
notes: as for B1

Tests used:
[1] = target: T1, Anti-PSMA Fab (SEQ ID NOs: 19, 20); experiment: phage binding ELISA; Fab-coated wells pre-incubated with PSMA antigen as competitor
T1 construct: Biotinylated and captured on neutravidin coated plates in the phage ELISA; also called 006 PSMA Fab
Method: (§1) Clonal phage were harvested as crude supernatants and screened via standard ELISAs. […] Prior to the addition of clonal phage. wells were incubated with blocking buffer and PSMA antigen or blocking buffer alone. Without washing or aspirating, clonal phage supernatants were then added to the wells and incubated for a short time. Wells were then washed followed by detection of bound phage using a horse radish conjugated anti-M13 antibody.

[2] = target: T1, Anti-PSMA Fab (SEQ ID NOs: 19, 20); experiment: phage binding ELISA; biotinylated Fab on neutravidin plate, clonal phage detected with anti-M13 HRP
Method: as §1

[3] = target: T2, Anti-PSMA Fab (SEQ ID NOs: 19, 20); experiment: phage binding ELISA; PSMA Fab on plate pre-incubated with PSMA antigen as competitor, anti-M13 HRP detection;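 note: crude clonal phage supernatants added without washing to wells preincubated with PSMA in blocking buffer, compared with wells receiving blocking buffer only, then bound phage detected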
T2 construct: also called 006 PSMA Fab
Method: as §1

[4] = target: T2, Anti-PSMA Fab (SEQ ID NOs: 19, 20); experiment: phage binding ELISA; biotinylated PSMA Fab on neutravidin plate, clonal phage supernatant, anti-M13 HRP detection;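 note: wells were preincubated with blocking buffer either containing PSMA antigen or without it before crude phage supernatant was added, briefly incubated, then washed prior to detection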
Method: as §1

[5] = target: T3, Anti-PSMA Fab (SEQ ID NOs: 19, 20); experiment: phage binding ELISA; clonal phage on plate-captured biotinylated PSMA Fab, anti-M13 HRP detection
T3 construct: Biotinylated and captured on neutravidin coated plates in the phage ELISA; also called 006 PSMA Fab
Method: as §1

[6] = target: T3, Anti-PSMA Fab (SEQ ID NOs: 19, 20); experiment: phage binding ELISA; plate-captured PSMA Fab pre-incubated with PSMA antigen as competitor, anti-M13 HRP detection
Method: as §1

[7] = target: T4, Anti-PSMA Fab (SEQ ID NOs: 19, 20); experiment: phage binding ELISA; biotinylated PSMA Fab on neutravidin plate, clonal phage detected with anti-M13-HRP
T4 construct: Biotinylated and captured on neutravidin coated plates in the phage ELISA; also called 006 PSMA Fab
Method: as §1

[8] = target: T4, Anti-PSMA Fab (SEQ ID NOs: 19, 20); experiment: phage binding ELISA; Fab-coated wells pre-incubated with PSMA antigen as competitor, anti-M13-HRP detection;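 note: clonal phage supernatants screened, with reference wells given blocking buffer only (no PSMA antigen) before phage were added for a brief incubation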
Method: as §1

Binder | Anti-PSMA Fab signal in the presence of PSMA [1] | Anti-PSMA Fab (SEQ ID NOs: 19, 20) signal [2] | Anti-PSMA Fab signal in the presence of PSMA [3] | Anti-PSMA Fab (SEQ ID NOs: 19, 20) signal [4] | also measured
VVKWCSPPWMCEYF [Phage-2270] | 0.0886 | 1.53 | – | – | –
PNIWCTPLWMCEGL [Phage-2262] | – | – | 0.0772 | 1.54 | –
B1 | – | – | – | – | Anti-PSMA Fab (SEQ ID NOs: 19, 20) signal [5]: 1.51; Anti-PSMA Fab signal in the presence of PSMA [6]: 0.0654
WDMRCTPIWMCEGF [Phage-2272] | 0.0882 | 1.52 | – | – | –
LEKWCTPPWMCMGF [Phage-2276] | 0.0948 | 1.52 | – | – | –
B2 | – | – | – | – | Anti-PSMA Fab (SEQ ID NOs: 19, 20) signal [5]: 1.51; Anti-PSMA Fab signal in the presence of PSMA [6]: 0.0683
B3 | – | – | – | – | Anti-PSMA Fab (SEQ ID NOs: 19, 20) signal [5]: 1.5; Anti-PSMA Fab signal in the presence of PSMA [6]: 0.0786
B4 | – | – | – | – | Anti-PSMA Fab (SEQ ID NOs: 19, 20) signal [5]: 1.5; Anti-PSMA Fab signal in the presence of PSMA [6]: 0.0741
ALKWCIPDWMCSQP [Phage-2264] | – | – | 0.0749 | 1.54 | –
AVKLCTPMWMCMGF [Phage-2282] | 0.0984 | 1.51 | – | – | –
IEKWCIPQWMCSAA [Phage-2278] | 0.0739 | 1.52 | – | – | –
B5 | – | – | – | – | Anti-PSMA Fab (SEQ ID NOs: 19, 20) signal [5]: 1.5; Anti-PSMA Fab signal in the presence of PSMA [6]: 0.0666
FAKWCTPQWMCSAM [Phage-2269] | 0.225 | 1.53 | – | – | –
PAKWCIPMWMCQVD [Phage-2254] | – | – | 0.0779 | 1.55 | –
B6 | – | – | – | – | Anti-PSMA Fab (SEQ ID NOs: 19, 20) signal [7]: 1.63; Anti-PSMA Fab signal in the presence of PSMA [8]: 0.0711
PVNWCKPPWMCEMW [Phage-2256] | – | – | 0.087 | 1.54 | –
MEMWCRPAWMCAHS (cysteine pairing not given here; also: displayed on phage, fused to pIII) [Phage-2257] | – | – | 0.0767 | 1.54 | –
GDRWCIPEWMCGVI [Phage-2265] | – | – | 0.0664 | 1.54 | –
HQNWCIPAWMCHGM [Phage-2271] | 0.0592 | 1.53 | – | – | –
B7 | – | – | – | – | Anti-PSMA Fab (SEQ ID NOs: 19, 20) signal [5]: 1.51; Anti-PSMA Fab signal in the presence of PSMA [6]: 0.079
GINWCIPPWMCQSE [Phage-2273] | 0.119 | 1.52 | – | – | –
IPRMCTPAWMCEWS [Phage-2279] | 0.0738 | 1.51 | – | – | –
FAILCKPMWMCEHI [Phage-2280] | 0.0895 | 1.51 | – | – | –

Binder | Anti-PSMA Fab signal in the presence of PSMA [1] | Anti-PSMA Fab (SEQ ID NOs: 19, 20) signal [2] | Anti-PSMA Fab signal in the presence of PSMA [3] | Anti-PSMA Fab (SEQ ID NOs: 19, 20) signal [4] | also measured
YTNWCIPSWMCEGF [Phage-2274] | 0.0789 | 1.52 | – | – | –
MMKWCTPEWMCAMV (cysteine pairing not given here; also: displayed on phage, fused to pIII) [Phage-2258] | – | – | 0.0753 | 1.54 | –
EMHWCIPAWMCPDG [Phage-2266] | – | – | 0.0572 | 1.54 | –
VDRWCIPEWMCNEL [Phage-2260] | – | – | 0.084 | 1.54 | –
B8 | – | – | – | – | Anti-PSMA Fab (SEQ ID NOs: 19, 20) signal [5]: 1.5; Anti-PSMA Fab signal in the presence of PSMA [6]: 0.106
MPKWCIPTWMCEST [Phage-2281] | 0.054 | 1.51 | – | – | –
B9 | – | – | – | – | Anti-PSMA Fab (SEQ ID NOs: 19, 20) signal [5]: 1.5; Anti-PSMA Fab signal in the presence of PSMA [6]: 0.0698
GEKWCIPSWMCEIT [Phage-2275] | 0.0796 | 1.52 | – | – | –
B10 | – | – | – | – | Anti-PSMA Fab (SEQ ID NOs: 19, 20) signal [5]: 1.5; Anti-PSMA Fab signal in the presence of PSMA [6]: 0.0564
B11 | – | – | – | – | Anti-PSMA Fab (SEQ ID NOs: 19, 20) signal [5]: 1.5; Anti-PSMA Fab signal in the presence of PSMA [6]: 0.0653
YSHLCIPSWMCSWT [Phage-2263] | – | – | 0.111 | 1.54 | –
AENWCRPSWMCEGF [Phage-2268] | 0.0717 | 1.53 | – | – | –
NERWCIPSWMCQEA [Phage-2253] | – | – | 0.0574 | 1.55 | –
TEKWCIPAWMCQVS [Phage-2261] | – | – | 0.0738 | 1.54 | –
B12 | – | – | – | – | Anti-PSMA Fab (SEQ ID NOs: 19, 20) signal [5]: 1.51; Anti-PSMA Fab signal in the presence of PSMA [6]: 0.108
B13 | – | – | – | – | Anti-PSMA Fab (SEQ ID NOs: 19, 20) signal [7]: 1.63; Anti-PSMA Fab signal in the presence of PSMA [8]: 0.0922
DMRWCIPAWMCEDR [Phage-2259] | – | – | 0.0623 | 1.54 | –
VELLCKPPWMCSGL [Phage-2255] | – | – | 0.0931 | 1.54 | –
IIKWCKPLWMCESI [Phage-2277] | 0.104 | 1.52 | – | – | –
ITKLCTPPWMCTMV [Phage-2267] | – | – | 0.0558 | 1.53 | –
B14 | – | – | – | – | Anti-PSMA Fab (SEQ ID NOs: 19, 20) signal [5]: 1.51; Anti-PSMA Fab signal in the presence of PSMA [6]: 0.101
B15 | – | – | – | – | Anti-PSMA Fab (SEQ ID NOs: 19, 20) signal [5]: 1.51; Anti-PSMA Fab signal in the presence of PSMA [6]: 0.0841

Reference: patent US20260242478A1 (published 2026)
